Assays:
[1] = molecular target: commercial Spike protein, active Recombinant 2019-nCoV Spike Protein, RBD, His Tag (SARS-CoV-2) (UniProt P0DTC2); test: ELISA
[2] = molecular target: plant produced deglycosylated Receptor Binding Domain of Spike protein of SARS-CoV-2 (SARS-CoV-2) (UniProt P0DTC2); test: ELISA

## plant produced Endo H in vivo deglycosylated soluble (truncated) human ACE2 (receptor)
[1]
  Kd: 4.68 nM
[2]
  Kd: 1.29 nM

Source: article PMC8685454
